Measured values reported in US20250250350.

Target: ALPG/P priming receptor of the AB-1013, AB-1014 and AB-1015 circuits
Sequence (chain, as listed by the source): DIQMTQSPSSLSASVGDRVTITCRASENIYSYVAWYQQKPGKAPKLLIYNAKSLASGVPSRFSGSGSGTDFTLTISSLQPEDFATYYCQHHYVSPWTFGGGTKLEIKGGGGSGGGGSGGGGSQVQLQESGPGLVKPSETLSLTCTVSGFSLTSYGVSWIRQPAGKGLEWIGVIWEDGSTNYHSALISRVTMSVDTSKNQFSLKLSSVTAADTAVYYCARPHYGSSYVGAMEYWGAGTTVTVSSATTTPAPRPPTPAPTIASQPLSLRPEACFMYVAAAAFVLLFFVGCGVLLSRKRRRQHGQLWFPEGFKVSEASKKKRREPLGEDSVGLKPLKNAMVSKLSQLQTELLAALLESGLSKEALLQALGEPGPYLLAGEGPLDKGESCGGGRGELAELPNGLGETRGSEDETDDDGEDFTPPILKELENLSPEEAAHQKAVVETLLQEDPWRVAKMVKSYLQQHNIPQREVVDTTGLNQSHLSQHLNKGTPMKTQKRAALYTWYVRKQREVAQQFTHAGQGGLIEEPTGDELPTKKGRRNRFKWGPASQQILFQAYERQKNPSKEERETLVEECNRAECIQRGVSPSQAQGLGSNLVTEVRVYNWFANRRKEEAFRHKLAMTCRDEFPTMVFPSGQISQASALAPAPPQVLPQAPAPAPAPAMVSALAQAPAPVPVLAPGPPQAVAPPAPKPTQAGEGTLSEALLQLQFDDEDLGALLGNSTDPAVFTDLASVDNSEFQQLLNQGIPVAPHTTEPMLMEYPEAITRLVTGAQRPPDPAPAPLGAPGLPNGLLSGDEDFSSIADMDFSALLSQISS

B1: Alkaline Phosphatase, Germ Cell (ALPG) expressed on K562-ALPG and K562-ALPG/MSLN target cells (protein)
chain: IIPVEEENPDFWNRQAAEALGAAKKLQPAQTAAKNLIIFLGDGMGVSTVTAARILKGQKKDKLGPETFLAMDRFPYVALSKTYSVDKHVPDSGATATAYLCGVKGNFQTIGLSAAARFNQCNTTRGNEVISVMNRAKKAGKSVGVVTTTRVQHASPAGAYAHTVNRNWYSDADVPASARQEGCQDIATQLISNMDIDVILGGGRKYMFPMGTPDPEYPDDYSQGGTRLDGKNLVQEWLAKHQGARYVWNRTELLQASLDPSVTHLMGLFEPGDMKYEIHRDSTLDPSLMEMTEAALLLLSRNPRGFFLFVEGGRIDHGHHESRAYRALTETIMFDDAIERAGQLTSEEDTLSLVTADHSHVFSFGGYPLRGSSIFGLAPGKARDRKAYTVLLYGNGPGYVLKDGARPDVTESESGSPEYRQQSAVPLDGETHAGEDVAVFARGPQAHLVHGVQEQTFIAHVMAFAACLEPYTACDLAPRAGTTD
**Q.** B1 was tested. Which “time to peak of ALPG-dependent CAR conversion” value did it give?
**A.** reached a peak after around 100 hours of stimulation with the PrimeR antigen
